The nature of this data set: protein stability index of a GFP-peptide fusion (GPS, HEK-293T) (PSI 1-6); higher = more stable.
Setting [1] is: treatment: DMSO, c terminus: a fixed tail appended.
[2] abbreviates: treatment: MLN4924 1 uM, 8 h, c terminus: a fixed tail appended.

± gives the standard deviation.
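Also: 24-mer peptide tiles fused after GFP, lentivirally expressed, FACS-sorted into six equal bins by GFP/DsRed ratio, decoded by Illumina sequencing, PSI is the read-weighted mean bin number.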

Regarding SIKKKFLKRKGKTDSPWIKPARKR [EHMT1], the protein stability index is, setting by setting: under setting [1], 3.66 ± 0.082; under setting [2], 3.71 ± 0.17.
Sequence FVQDVLFVLQAIGIPGWGFSGWIS [SCAMP3] came in with a protein stability index under setting [1] of 3.33 ± 0.35 and a protein stability index under setting [2] of 2.73 ± 0.33.
On the same counts, the results for RSRDSNSGPEEPLLEEEEKQWGPL [RTN2] are 5.05 ± 0.53 and 5.45 ± 0.53.
For TGVYPRCLHASQWPVCAACPVRKF [BRF1] the same measures were 2.49 ± 0.17 and 2.45 ± 0.24.
GEFPSPVSISIISSTSGGSGYGFR [KRT71]: the protein stability index was found to be 2.65 ± 0.34 under setting [1] and 3.04 ± 0.64 under setting [2].
On the same counts, the results for VLEYRRTNFEGPPRLKEDQPWMVI [FSD1] are 2.12 ± 0.44 and 2.35 ± 0.39.
Regarding PQAHQESTRGAARPAQAIGTQPRA [SPACA9], the protein stability index turned out to be 5.08 ± 0.23 under setting [1] and 5.35 ± 0.18 under setting [2].
On the same counts, the results for NNTGKNLELKFVSSLRRQFEFSVD [TENT5D] are 2.75 ± 0.42 and 2.75 ± 0.4.
On the same counts, the results for LGSKHKVCMDLRANLKQVKKEDTE [TNNI2] are 4.76 ± 0.16 and 4.94 ± 0.23.
Take MENKSLESSQTDLKLVAHPRAKSK [ZBED1]: the protein stability index under setting [1] came to 5.26 ± 0.29 and the protein stability index under setting [2] is 5.27 ± 0.25.
On the same counts, the results for RDKNWQTPLHVAAANKAVKCAEVI [ANKRD44] are 3.69 ± 0.38 and 3.7 ± 0.19.
With QGRFCTIFRSYSRGAQGVILVYDI [RAB40A], the protein stability index reads like this: under setting [1], 3.15 ± 0.35; under setting [2], 2.99 ± 0.43.
For DGTGASQEPPTTDSQEAQSPGHSS [TOR1AIP2] the same measures were 5.56 ± 0.26 and 5.54 ± 0.24.
For the sequence LNLGSGTGYLSSMVGLILGPFGVN [PCMTD2], the protein stability index is, setting by setting: under setting [1], 2.42 ± 0.51; under setting [2], 2.48 ± 0.38.
On the same counts, the results for ELCHHVAEVWVSGTIFIRNVLLFK [RETREG3] are 3.09 ± 0.67 and 2.81 ± 0.61.
With IFGSNKWTTEQQQRFHEICSNLVK [ARL6IP1], the protein stability index under setting [1] came to 2.98 ± 0.13 and the protein stability index under setting [2] is 3.03 ± 0.14.
Consider FVHGLEDEMYEVRIAAVEALCMLA [INTS4], for which the protein stability index reads like this: under setting [1], 2.34 ± 0.61; under setting [2], 2.23 ± 0.46.
SGRLMGSPPVPGPSAALTTMQLFS [FBXO28]: the protein stability index by setting is: under setting [1], 2.71 ± 0.25; under setting [2], 2.63 ± 0.21.
For RVTTEQYQKAAEEVEAKFKRYESH [CHCHD3] the same measures were 4.66 ± 0.14 and 4.7 ± 0.12.
For MAAGGRMEDGSLDITQSIEDDPLL [TMEM192] the same measures were 4.7 ± 0.29 and 4.87 ± 0.16.
Consider LSKEYWDCLEGKKSKHAPRGTHLW [ELF3], for which the protein stability index stood at 2.82 ± 0.45 under setting [1] and 3.17 ± 0.24 under setting [2].
Turning to AANLPALVLKIMSGTFAPISDRYS [NEK8], the protein stability index was found to be 3.08 ± 0.27 under setting [1] and 2.9 ± 0.56 under setting [2].
With QFSVVSVVAYLALAALSATISFRI [RTN1], the protein stability index was 2.99 ± 0.57 under setting [1] and 3.2 ± 0.55 under setting [2].
For LFRCIQNMPETLPNNSCYSAGIAK [TNFSF13B] the same measures were 2.63 ± 0.3 and 2.68 ± 0.16.
Consider GKKVAVVLMDTQGAFDSQSTVKDC [ATL3], for which the protein stability index is 3.46 ± 0.87 under setting [1] and 3.66 ± 0.44 under setting [2].
For NLRRHVPDLESGSESGADTISVNQ [DLC1] the same measures were 5.29 ± 0.27 and 5.25 ± 0.28.
For RQTTGLMEYCLEVIKENDPSGFLQ [TRIM9] the same measures were 3.11 ± 0.24 and 3.05 ± 0.34.
Consider EPVLLFGKIRRGAYALPAGLSAPA [TRIB3], for which the protein stability index runs as follows: under setting [1], 2.76 ± 0.19; under setting [2], 3.01 ± 0.26.
On the same counts, the results for TLRPDQQLHIFNTLRSHLIDKGML [CDS2] are 2.14 ± 0.28 and 2.24 ± 0.13.
Regarding LPLLSPKFLVGTVGSDPLIKSDEE [KLHL20], the protein stability index runs as follows: under setting [1], 4.33 ± 0.051; under setting [2], 4.43 ± 0.073.
For VIRLKQEQHVHNEKSVLKEVSHPF [PRKX] the same measures were 3.36 ± 0.062 and 3.62 ± 0.36.
For LLVFLILVGIFILAVSRPRSSPDD [SCARA5] the same measures were 2.08 ± 0.43 and 2.07 ± 0.19.
With HQEAEMAQNAVRLHYGLPVVVKLL [CTNNB1], the protein stability index was determined as 2.58 ± 0.18 under setting [1] and 2.62 ± 0.21 under setting [2].
Turning to ERLKQEIERLTREVEATRRALIDR [DDIT3], the protein stability index stood at 3.6 ± 0.24 under setting [1] and 3.56 ± 0.29 under setting [2].
For TQIIGEQNARLAELERKLREVMES [FBXO28] the same measures were 3.71 ± 0.22 and 3.68 ± 0.12.
For RKVAGMAKPNMIISVNGDVITIKS [FABP4] the same measures were 2.37 ± 0.66 and 2.43 ± 0.26.
On the same counts, the results for MNYMPGTASLIEDIDKKHLVLLRD [LSM1] are 3.15 ± 0.16 and 3.27 ± 0.32.
Consider NSQESRSDLEDMEEEEGTRSPTLE [SMG5], for which the protein stability index came out at 5.56 ± 0.16 under setting [1] and 5.44 ± 0.23 under setting [2].
For RGLPLLKTDFGSCLLQPPSCPNGM [DLC1] the same measures were 2.69 ± 0.22 and 2.67 ± 0.41.
For RKPKVIECSYTSADGQRHHSKLLV [DHCR7] the same measures were 2.72 ± 0.13 and 2.93 ± 0.28.
On the same counts, the results for ADVTLDPETAHPNLVLSEDRKSVK [TRIM39] are 5.38 ± 0.16 and 5.37 ± 0.43.
As for QALKFLPVPSAPVIDLAESLVADN [FSD1], the protein stability index reads like this: under setting [1], 3.48 ± 0.42; under setting [2], 3.77 ± 0.28.
On the same counts, the results for VLLMKDRETNKSRGFAFVTFESPA [RBMX] are 2.06 ± 0.47 and 2.2 ± 0.41.
On the same counts, the results for LKQLKHPNLVNLIEVFRRKRKMHL [CDKL4] are 2.44 ± 0.43 and 2.58 ± 0.3.
On the same counts, the results for LVDQVTGVSRGVGFIRFDKRIEAE [ELAVL3] are 2.97 ± 0.52 and 2.88 ± 0.62.
ESSTRLLLEKNASVNEVDFEGRTP [RIPK4]: under setting [1], the protein stability index was 4.83 ± 0.79.
On to TAHLYSLLQTQHALGDAFADLSQK [ARFIP2], for which the protein stability index reads like this: under setting [1], 2.18 ± 0.25; under setting [2], 2.22 ± 0.23.
Sequence HQGHSDQHHHHHHHHHGRDFLLRA [RHOBTB2] yielded a protein stability index under setting [1] of 3.45 ± 0.11 and a protein stability index under setting [2] of 3.65 ± 0.24.
On to NGADVNIQSKDGKSPLHMTAVHGR [ANKRD44], for which the protein stability index under setting [1] is 4.44 ± 0.22 and the protein stability index under setting [2] worked out at 4.46 ± 0.11.
For QSAFLHLPLPEQIHKASATIIEPA [INTS4] the same measures were 3.45 ± 0.31 and 3.82 ± 0.1.
For KHPRQTLEVINLLRKHRELCDVVL [KLHL20] the same measures were 2.34 ± 0.43 and 2.17 ± 0.25.
In the case of DHEDNDKMNDSEGMDPERLKAFNM [NOL4L], the protein stability index by setting is: under setting [1], 5.46 ± 0.12; under setting [2], 5.34 ± 0.34.
For AKKFMWRDSFMRHRGHCERRHRLG [ZBTB22] the same measures were 2.94 ± 0.23 and 3.1 ± 0.41.
On the same counts, the results for YGSDQQHHLGSGSGAGGTGGPAGQ [MYOZ1] are 4.93 ± 0.23 and 4.77 ± 0.28.
On the same counts, the results for VPWLNLKKQDENEGIKVEDLLFIV [CEP70] are 1.97 ± 0.42 and 2.26 ± 0.22.
In the case of DTINRSVLDFDFEKLCSISLSHIN [USP39], the protein stability index by setting is: under setting [1], 2.6 ± 0.32; under setting [2], 2.79 ± 0.24.
In the case of SKTFLCIGSSVMAASLVTMGIVNL [SLC2A12], the protein stability index came to 3.19 ± 0.72 under setting [1] and 3.3 ± 0.54 under setting [2].
On the same counts, the results for AQQDLAPDPDAWLRALGELLRRDL [FANCE] are 3.11 ± 0.4 and 3.15 ± 0.3.
For DGASVNENHEIYMKDSMSAAEVGT [EPB41L3] the same measures were 5.31 ± 0.28 and 5.34 ± 0.32.
SDGTDEPESKEPVEKEEEPDPEPP [SMG5]: the protein stability index worked out at 5.67 ± 0.23 under setting [1] and 5.62 ± 0.18 under setting [2].
On the same counts, the results for TFPHSISAKNTSHPGSGTKVQFNL [SASS6] are 2.89 ± 0.33 and 3 ± 0.46.
On the same counts, the results for DSQDLVASFRVTTGTSNTTAIKSI [RBBP5] are 3.46 ± 0.24 and 3.59 ± 0.26.
On the same counts, the results for LANRLCLPHLVALTEQYTVTGLME [RHOBTB2] are 2.57 ± 0.6 and 2.43 ± 0.39.
Turning to PEKASELSQVELQAAPGALPVSSP [TRIM55], the protein stability index is, setting by setting: under setting [1], 5.21 ± 0.38; under setting [2], 5.49 ± 0.24.
In the case of FLTILPEELQSWVRGHHPKSGEEA [ZNF232], the protein stability index runs as follows: under setting [1], 3.7 ± 0.18; under setting [2], 3.56 ± 0.35.
Consider VLRREISELRTKVQEQQKQLQDQD [FBXO28], for which the protein stability index runs as follows: under setting [1], 4.73 ± 0.17; under setting [2], 4.66 ± 0.23.
With EDPSFWDCFCFTEEIPIRNGTKS [AASDHPPT], the protein stability index (treatment: DMSO, c terminus: native) was determined as 3.92 ± 0.12 and the protein stability index (treatment: MLN4924 1 uM, 8 h, c terminus: native) stood at 4.22 ± 0.22.
Consider TVASMMHRQETVECLKKFNARRKL [CAMK2B], for which the protein stability index amounted to 3.41 ± 0.4 under setting [1] and 3.74 ± 0.33 under setting [2].
On the same counts, the results for QPRIHLVRAAQLCSQHWGGMASFR [TBX6] are 2.38 ± 0.56 and 2.24 ± 0.11.
For the sequence LRVHLKMVDSFHRTSLQYGIMCLK [PPFIA4], the protein stability index stood at 2.99 ± 0.047 under setting [1] and 2.9 ± 1 under setting [2].
On the same counts, the results for GLASWPLARGIHVAGILSLLLGTA [POMT2] are 2.52 ± 0.52 and 2.18 ± 0.49.
For PARLLLQALQAGPEGARRGLGVLR [FANCE] the same measures were 2.67 ± 0.16 and 2.82 ± 0.34.

These data come from the supplement of paper PMC10567573.
